Consider three molecules from US8173598B2, “Myeloid protein activation of anti-inflammatory and anti-hypoxic pathway” (The Board of Trustees of the University of Illinois, priority 2008, dated 2012).

In series [1] the test system is Human peripheral neutrophils. Put plainly: Spontaneous oxidative activation of neutrophils (DCFH-DA oxidation). Format: cell-based. From the text: (§1) Human peripheral neutrophils were isolated from heparinized blood donated by healthy volunteers according to a protocol approved by the University of Illinois Institutional Review Board. The cells were isolated using a Histopaque™ gradient (Sigma) according to the manufacturer's instructions. Cell viability and identity was confirmed by trypan blue staining. Live cells and neutrophils represented at least 95% of isolated leukocytes.
(§2) The method for the measurement of oxidative activation of neutrophils was based on the ROS-dependent oxidation of DCFH-DA to DCF and was adapted from Ciapetti et al. DCFH-DA crosses the cell membrane and is hydrolyzed by nonspecific esterases to nonfluorescent DCFH. Its oxidation by ROS results in the generation of highly fluorescent DCF [30]. DCFH-DA is therefore a widely accepted probe for the measurement of an overall index of oxidative activity. DCFH-DA was purchased from Calbiochem (Madison, Wis.). The assays were run in clear bottom black 96-well plate. “Edge effects” (a higher fluorescence in edge wells) were avoided by using only center wells. Briefly, 50 μl of Dulbecco's Phosphate Buffered Saline (DPBS) containing DCFH-DA was added to each well with the final concentration of […]. S100 proteins or PKC inhibitors were diluted in the wells. Just before a baseline reading 100,000 neutrophils in 50 μl PBS were placed in each well. 96-well plates were incubated at 37° C. and 5% CO2 and were read at baseline (immediately after cell addition to the plates) and at indicated time points in a Spectra Max Gemini XS fluorescent plate reader. The excitation wavelength was 485 and the reading was done at 530 nm. Wells with no DCFH-DA were used to measure background fluorescence which was subtracted from each reading. Controls with no cells were also analyzed and display no increased fluorescence over time. All assays were conducted in triplicate or quadruplicate wells.
In order to avoid differences between donors, experimental procedures and plate to plate variation, all experimental conditions and statistical analysis were run within one plate inclusive of all positive and negative controls. Single sample t-tests were calculated to test the S100A8, S100A9 and combined proteins in comparison to the control wells with alpha set to ≦0.05 to determine statistical significance. Comparisons between the S100A8, S100A9 and combined proteins were calculated with two sample t-tests using SPSS (SPSS Inc., Chicago, Ill.) with alpha set to ≦0.05 to determine statistical relevance.

For series [2], the system named is Human peripheral neutrophils. The series is described as follows: PAR-4 activating peptide enhanced neutrophil oxidative metabolism (DCFH-DA oxidation). Format: cell-based. Particulars: P4pal-i1 with PAR-4 activating peptide (FIG. 6A).
Excerpt: as §1
The method for the measurement of oxidative activation of neutrophils was based on the ROS-dependent oxidation of DCFH-DA to DCF and was adapted from Ciapetti et al. DCFH-DA crosses the cell membrane and is hydrolyzed by nonspecific esterases to nonfluorescent DCFH. […] “Edge effects” (a higher fluorescence in edge wells) were avoided by using only center wells. […] Just before a baseline reading 100,000 neutrophils in 50 μl PBS were placed in each well. 96-well plates were incubated at 37° C. and 5% CO2 and were read at baseline (immediately after cell addition to the plates) and at indicated time points in a Spectra Max Gemini XS fluorescent plate reader. The excitation wavelength was 485 and the reading was done at 530 nm. Wells with no DCFH-DA were used to measure background fluorescence which was subtracted from each reading. Controls with no cells were also analyzed and display no increased fluorescence over time. […]

The subject of a further series is neutrophils. Particulars: cited from earlier work.
For series [3], the system named is Human peripheral neutrophils. Put plainly: PMA induced activation of neutrophil oxidative metabolism (DCFH-DA oxidation). Format: cell-based. Particulars: dose dependent.
Excerpt: as §1, §2

The subject of series [4] is excisional cutaneous wounds. The series is described as follows: Wound closure in the SKH-1 restraint stress model. Format: in vivo, SKH-1 mice. The source says: This protocol was approved by the Committee on Animal Research at the University of Illinois at Chicago. Virus antibody-free, female SKH-1 mice, 5-6 weeks of age, were purchased from Charles River, Inc (Wilmington, Mass.). The animals were allowed to acclimate to the animal facility for at least one week prior to experimental procedures.
(§3) The restraint stress protocol is based on established procedures (Gajendrareddy et al., 2005; Mercado et al., 2002; Padgett et al., 1998). Restraint was initiated 3 days before wounding. Restraint stress (RST) in this model consists of confinement of mice within loosely fitting, well-ventilated 50 ml conical tubes for a period of 12-14 hours during their active nocturnal cycle. Animals were subjected to restraint for an additional five cycles on the day of wounding and for four days thereafter, then stress was discontinued.
For excisional wounds, mice were anesthetized with a single 0.25 ml intraperitoneal injection of Ketaset solution (Aveco, Fort Dodge, Iowa) at a concentration of 7.8 mg/ml, plus Rompum (Haver-Lockhart, Shawnee, Kans.) at 0.44 mg/ml. Each animal received two standardized circular cutaneous wounds with 3.5 mm punch (Miltex Instrument Company), placed just behind the shoulder blades with a biopsy punch.
(§4) For treatment of wounds, S100A8 and mutant ala^42S100A8 were produced, cleaved and purified from a GST fusion construct as previously described (Tugizov et al., 2005) (Sroussi et al., 2006). The endotoxin levels in the recombinant protein preparations were below 1 ng/μg of proteins as measured by the Limulus amoebocyte lysate assay (LAL) (Associates of Cape Cod, Falmouth, Mass.). Solutions of S100 proteins at a concentration of 1 μg/ml were used for those experiments. Introduction of S100A8 protein or control saline vehicle were conducted through local injection intradermally of 25 μl solution in the tissue surrounding the wounds with the help of Micro-Fine IV syringes 28G1/2 (Becton Dickinson, Franklin Lakes, N.J.). Careful wound manipulation ensured no direct disruption of the wound site. An additional 10 μl solution was applied directly to the wounds.
Measurement of Wound Sizes was done as follows. Beginning on the day of wounding (day 0), each animal's wounds were photographed daily until day 5 post-wounding. Photographs of the wound were obtained with a standard-sized dot placed next to the site. Digitized photographs were analyzed using photoplanimetry (Marucha et al., 1998). An investigator blinded to treatment group and day of photograph measured wound size. Wound size was expressed as the percentage of the wound area determined on every post-wounding day, compared with the original wound area.

In a further series the target is T1, PAR-4 (Homo sapiens, UniProt Q96RI0).
T1 construct: host or cells: Chem-1 cells
T1 sequence (Q96RI0 18-385): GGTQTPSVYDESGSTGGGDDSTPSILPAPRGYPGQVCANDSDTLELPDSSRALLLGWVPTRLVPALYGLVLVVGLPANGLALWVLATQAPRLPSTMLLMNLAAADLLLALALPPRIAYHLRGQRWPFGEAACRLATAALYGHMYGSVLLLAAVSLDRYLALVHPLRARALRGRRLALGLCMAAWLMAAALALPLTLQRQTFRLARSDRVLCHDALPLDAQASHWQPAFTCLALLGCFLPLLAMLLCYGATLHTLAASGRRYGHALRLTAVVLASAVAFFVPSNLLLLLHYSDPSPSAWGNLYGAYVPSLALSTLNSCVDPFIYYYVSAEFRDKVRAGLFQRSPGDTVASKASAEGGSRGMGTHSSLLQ
Put plainly: Calcium flux and desensitization to thrombin in PAR-4 expressing Chem.-1 cells. Format: cell-based. The method, then: (§5) Screening for S100A8 and S100A9 activity on thrombin receptors including thrombin receptor desensitization were conducted with calcium flux assays in Chem 3 and PAR-4 expressing Chem.-1 cells by Millipore's GPCRProfiler(R) Service (Millipore, St. Charles, Mo.; see website Millipore website on the internet).

Another series deals with thrombin receptors. Put plainly: Calcium flux and thrombin-S100A8/A9 cross-desensitization in Chem-3 cells. Particulars: each alone. Format: cell-based. The method, then: as §5
The subject of series [5] is Human peripheral neutrophils. Put plainly: LPS stimulated neutrophil oxidative metabolism (DCFH-DA oxidation). The series is classed as cell-based. Particulars: 2.5 to 10 μg/ml of protein; LPS 10 μg/ml.
Excerpt: as §1, §2

For a further series, the system named is wound bacterial load. The series is classed as in vivo, SKH-1 mice. How it is done:
as §3, §4
Wound biopsies were performed to evaluate bacterial clearance. Mice were anesthetized as described above. The dorsal area was cleaned with Betadine and a uniform, full-thickness wound located on the dorsum just below the shoulder blades was created with a sterile 6.0-mm punch (Miltex Instrument Company).
Wound infection was assessed with measurement of bacterial load at the wound site by methods adapted from Rojas (Rojas et al., 2002). At day 1 and day 5 post-wounding, mice were euthanized; wounds were collected with a 6-mm punch (see above) and homogenized in 1 ml of sterile PBS. Homogenates were serially diluted (1:10); plated in duplicate on BHI agar, and incubated for 15 h. Bacterial colonies were counted.

The subject of series [6] is recruitment of neutrophils. Particulars: rat air-pouch; Sroussi et al., 2006; cited from earlier work.
Where [7] appears, read: restraint stressed (RST) mice, single local treatment immediately after wounding.

No end group written: not given here. *: point of attachment. Palmitoyl = CCCCCCCCCCCCCCCC(=O)*

Regarding “C15H31CONH-ATGAPRLPST (Palmitoyl-ATGAPRLPST) [P4pal-i1, reference compound]”, the “spontaneous oxidative metabolic activity” value in series [1] (2.5 μM P4pal-i1) is recorded as “spontaneous oxidative metabolic activity was reduced”. Besides, the “effect on S100A8, S100A9 and calprotectin inhibition of spontaneous oxidative metabolic activity” value in series [1] (P4pal-i1 with S100 proteins (FIG. 6B)) was “blocked the ability of S100A8, S100A9 and calprotectin (S100A8/A9 in combination) to inhibit the spontaneous oxidative metabolic activity of neutrophils”. In [2], the “PAR-4 activating peptide enhancement of oxidative metabolism” value was “blocked the ability of the PAR-4 activating peptide to enhance oxidative metabolism”.

Consider “S100A8: recombinant human S100A8 calcium binding protein, expressed in Escherichia coli as GST fusion, GST tag cleaved”, for which the “neutrophil chemotaxis toward bacterial products (formylated peptides)” value in the series on neutrophils (in-vitro, Sroussi et al., 2006, 2007) is “inhibit neutrophil chemotaxis toward bacterial products”. Moreover, in series [3], the “PMA activation of neutrophils” value is “produced a dose dependent inhibition of PMA activation of neutrophils”. Also, the “wound closure rate in stressed animals” value in series [4] (setting [7]) is given as “partial acceleration in wound closure rate in stressed animals”. The “rate of spontaneous oxidation of the DCFH-DA probe” value in series [1] (2.5 to 10 μg/ml of protein, followed over time, p <0.001 to <0.05) was “reduced the rate at which spontaneous oxidation of the DCFH-DA probe occurred in a dose dependent manner”. The “oxidative activation of neutrophils” value in series [1] (5, 2.5 and 1.25 μg/ml, p<0.05) is listed as “inhibited the oxidative activation of neutrophils”. In addition, the “oxidative metabolism (fluorescence emission of DCFH-DA probe)” value in [1] (1 h time point, all concentrations tested, P<0.05 compared to control) is recorded as “significantly inhibited oxidative metabolism at all concentrations tested”. In addition, in series [1] (same concentrations (5, 2.5, 1.25 μg/ml), protein boiled for 5 minutes), the “oxidative activation of neutrophils, protein first boiled” value is recorded as “did not significantly affect the neutrophils”. In the series with PAR-4 (data not shown), the “calcium flux in PAR-4 expressing cells” value is listed as “activated calcium flux in those cells”. Also, the “desensitization of PAR-4 expressing cells to thrombin activation” value in the series with PAR-4 (previous treatment with different concentrations, then 10 nM thrombin) is given as “dose dependently desensitized PAR-4 expressing cells to thrombin activation”. Moreover, in the series with thrombin receptors, the “calcium flux in Chem-3 cells” value is recorded as “trigger calcium flux in Chem-3 cells in a dose dependent manner”. Further, the “LPS stimulation of neutrophil oxidative activity” value in series [5] was “strongly inhibited LPS stimulation of neutrophil oxidative activity”.

B1: ala^42S100A8: oxidation-resistant analog of S100A8 engineered using site-directed mutagenesis (cysteine 42 replaced with alanine) (protein, UniProt P05109 1-93, looked up, variant C42A)
Protein S100-A8: MLTELEKALNSIIDVYHKYSLIKGNFHAVYRDDLKKLLETEAPQYIRKKGADVWFKELDINTDGAVNFQEFLILVIKMGVAAHKKSHEESHKE
Consider B1, for which the “wound bacterial loads, stressed mice, day 1” value in the series with wound bacterial load (RST mice, day 1, vs saline treated stressed mice) is reported as “statistically significant reduction in bacterial loads”. The “wound bacterial loads, stressed mice, day 5” value in the series with wound bacterial load (RST mice, day 5, vs saline treated stressed mice) is “statistically significant reduction in bacterial loads”. In addition, in the series on wound bacterial load (mouse, in vivo), the “wound bacterial counts, FWD mice, day 1” value is reported as “statistically significant increase in wound bacterial counts” and the “wound bacterial counts, FWD mice, day 5” value is on record as “bacterial counts had reverted to control values”. Moreover, in the series with neutrophils (conditions that inhibit wild type S100A8), the “chemo-repulsive activity under oxidative conditions” value is listed as “retains its chemo-repulsive activity under oxidative conditions”. In addition, in series [4] (FWD mice, daily treatment, vs daily saline), the “wound closure in non-stressed animals with daily treatment” value is on record as “significant delay in wound closure starting at day 4 post-wounding”. In addition, the “wound closure rates in non-stressed control animals” value in [4] (FWD mice, single application) was “normal wound closure rates”. The “wound closure rates with daily injections” value in series [4] (daily administration to the wounds) is reported as “did not result in the amelioration of wound closure rates”. For the same molecule, in [4] (setting [7]), the “wound closure rate in stressed animals” value was “closure rate similar to the closure rates observed in the non stressed food and water deprived (FWD) group”. For the same molecule, the “average wound size in stressed animals vs saline” value in series [4] (restraint stressed (RST) mice, single local treatment immediately after wounding, from day 2 on) is “significantly smaller than the average wound size in stressed animals treated with saline”. Moreover, in series [6], the “recruitment of neutrophils stimulated by bacterial endotoxins” value is “inhibits the recruitment of neutrophils stimulated by bacterial endotoxins”.
